Measurements as given in article PMC8464079.
Positions count from the first letter of the chain named.

T1: MUT-4N (Caenorhabditis elegans, UniProt Q09487 172-535, N318A;H319A;Q322A)
T1 sequence: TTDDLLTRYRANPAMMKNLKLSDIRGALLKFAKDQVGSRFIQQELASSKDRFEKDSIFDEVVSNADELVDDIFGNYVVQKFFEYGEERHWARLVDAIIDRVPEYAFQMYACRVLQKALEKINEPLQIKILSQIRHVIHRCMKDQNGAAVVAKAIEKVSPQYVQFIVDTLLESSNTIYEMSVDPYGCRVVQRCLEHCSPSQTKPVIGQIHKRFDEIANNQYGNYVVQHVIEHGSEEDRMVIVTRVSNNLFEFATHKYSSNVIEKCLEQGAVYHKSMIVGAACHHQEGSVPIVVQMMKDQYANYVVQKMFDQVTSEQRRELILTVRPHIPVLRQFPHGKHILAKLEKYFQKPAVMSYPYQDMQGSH

T2: MUT-4C (Caenorhabditis elegans, UniProt Q09487 172-535, N318C;H319Y;Q322R)
T2 sequence: T1 sequence with A147C, A148Y, A151R

T3: PUF-8 WT (FP) (Caenorhabditis elegans, UniProt Q09487 172-535)
T3 sequence: T1 sequence with A147N, A148H, A151Q

T4: MUT-4G (Caenorhabditis elegans, UniProt Q09487 172-535, N318S;H319N;Q322E)
T4 sequence: T1 sequence with A147S, A148N, A151E

T5: MUT-8G (Caenorhabditis elegans, UniProt Q09487 172-535, N472S;Y473N;Q476E)
T5 sequence: T1 sequence with A147N, A148H, A151Q, N301S, Y302N, Q305E

T6: MUT-4A (Caenorhabditis elegans, UniProt Q09487 172-535, N318C;H319R)
T6 sequence: T1 sequence with A147C, A148R, A151Q

B1: PBE-5U FAM (ssRNA)
RNA: UGUAUAUA
B2: PBE-5C FAM (ssRNA)
RNA: UGUACAUA
B3: PBE-5G FAM (ssRNA)
RNA: UGUAGAUA
B4: PBE-1G FAM (ssRNA)
RNA: GGUACAUA
B5: Control RNA FAM (ssRNA)
RNA: AUACAUGU

What was measured:
Experiment in all cases: fluorescence polarization
MUT-4N = target: T1, MUT-4N
MUT-4C = target: T2, MUT-4C
PUF-8 WT (FP) = target: T3, PUF-8 WT (FP)
MUT-4G = target: T4, MUT-4G
MUT-8G = target: T5, MUT-8G
MUT-4A = target: T6, MUT-4A

Binder | Kd (MUT-4N) | Kd (MUT-4C) | Kd (PUF-8 WT (FP)) | Kd (MUT-4G) | binding result (MUT-8G) | Kd (MUT-4A) | binding result (MUT-4N) | binding result (MUT-4G) | binding result (MUT-4C) | binding result (MUT-4A)
B1 | 313 ± 58.2 nM | 3.72 ± 0.94 nM | 1.27 ± 1.16 nM | 775 ± 276 nM | no binding | 5.85 ± 1.64 nM |  |  |  | 
B2 | 349 ± 83.2 nM | 2.91 ± 0.36 nM | 0.84 ± 1.08 nM | 1350 ± 507 nM | no binding | 0.64 ± 0.2 nM |  |  |  | 
B3 | 180 ± 22.8 nM | 11.3 ± 3.43 nM | 12.8 ± 5.63 nM | 29.8 ± 9.14 nM | no binding | 9.99 ± 3.11 nM |  |  |  | 
B4 |  | 207 ± 23 nM | 128 ± 25.1 nM |  | no binding | 159 ± 34.1 nM | no binding | no binding |  | 
B5 |  |  |  |  | no binding |  | no binding | no binding | no binding | no binding
